We go through 94 variants from the supplement of paper PMC10567573.

B1: HSP90AB1 (parent)
chain: EADKNDKAVKDLVVLLFETALLSS
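Note: lentivirally expressed fusions sorted by FACS into six bins by GFP to DsRed ratio, PSI derived from sequencing read proportions per bin multiplied by bin number.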

Variants of B1 are the subject of the data set. Nature of the data set: protein stability index of a GFP-peptide fusion (GPS, HEK-293T) (PSI 1-6); higher = more stable. The conditions noted are these: c terminus: a fixed tail appended.
For the variant EADKNDKAYKDLVVLLFETALLSS, the protein stability index was found to be 2.16.

For the variant EADKNDKAEKDLVVLLFETALLSS, the protein stability index is 3.07.

Take EADKNDKAAKDLVVLLFETALLSS: the protein stability index stood at 1.97.

Turning to EADKNDKAMKDLVVLLFETALLSS, the protein stability index was found to be 1.8.

For the variant EADKNDKATKDLVVLLFETALLSS, the protein stability index was 2.49.

In the case of EADKNDKAHKDLVVLLFETALLSS, the protein stability index turned out to be 3.

Take EADKNDKASKDLVVLLFETALLSS: the protein stability index worked out at 2.1.

Regarding EADKNDKAKKDLVVLLFETALLSS, the protein stability index worked out at 2.15.

With EADKNDKALKDLVVLLFETALLSS, the protein stability index turned out to be 2.42.

With EADKNDKAIKDLVVLLFETALLSS, the protein stability index turned out to be 1.84.

On to EADKNDKAPKDLVVLLFETALLSS, for which the protein stability index is 2.81.

Consider EADKNDKADKDLVVLLFETALLSS, for which the protein stability index is 2.44.

For EADKNDKAWKDLVVLLFETALLSS, the protein stability index amounted to 1.7.

With EADKNDKAFKDLVVLLFETALLSS, the protein stability index came to 2.17.

On to EADKNDKACKDLVVLLFETALLSS, for which the protein stability index is 1.81.

Take EADKNDKARKDLVVLLFETALLSS: the protein stability index turned out to be 1.95.

Take EADKNDKAQKDLVVLLFETALLSS: the protein stability index turned out to be 1.7.

Regarding EADKNDMAVKDLVVLLFETALLSS, the protein stability index was 2.47.

As for EADKNDCAVKDLVVLLFETALLSS, the protein stability index turned out to be 1.44.

As to EADKNDRAVKDLVVLLFETALLSS, the protein stability index turned out to be 2.02.

On to EADKNDFAVKDLVVLLFETALLSS, for which the protein stability index stood at 2.32.

As to EADKNDAAVKDLVVLLFETALLSS, the protein stability index worked out at 1.95.

On to EADKNDNAVKDLVVLLFETALLSS, for which the protein stability index was 1.95.

On to EADKNDPAVKDLVVLLFETALLSS, for which the protein stability index turned out to be 2.24.

Consider EADKNDQAVKDLVVLLFETALLSS, for which the protein stability index stood at 1.67.

For the variant EADKNDLAVKDLVVLLFETALLSS, the protein stability index was 2.47.

In the case of EADKNDYAVKDLVVLLFETALLSS, the protein stability index came out at 2.79.

As to EADKNDSAVKDLVVLLFETALLSS, the protein stability index worked out at 1.92.

As to EADKNDDAVKDLVVLLFETALLSS, the protein stability index worked out at 2.

Take EADKNDGAVKDLVVLLFETALLSS: the protein stability index is 2.17.

Turning to EADKNDHAVKDLVVLLFETALLSS, the protein stability index was 2.

On to EADKNDTAVKDLVVLLFETALLSS, for which the protein stability index is 1.84.

As to EADKNDIAVKDLVVLLFETALLSS, the protein stability index came to 2.77.

For the variant EADKNDWAVKDLVVLLFETALLSS, the protein stability index was 3.3.

Take EADKNDKAVLDLVVLLFETALLSS: the protein stability index was determined as 1.82.

For the variant EADKNDKAVYDLVVLLFETALLSS, the protein stability index came to 2.7.

In the case of EADKNDKAVCDLVVLLFETALLSS, the protein stability index was 1.96.

On to EADKNDKAVDDLVVLLFETALLSS, for which the protein stability index came to 2.42.

For EADKNDKAVQDLVVLLFETALLSS, the protein stability index turned out to be 2.19.

As for EADKNDKAVPDLVVLLFETALLSS, the protein stability index is 1.49.

As for EADKNDKAVHDLVVLLFETALLSS, the protein stability index stood at 2.38.

For EADKNDKAVADLVVLLFETALLSS, the protein stability index came to 1.82.

Regarding EADKNDKAVTDLVVLLFETALLSS, the protein stability index is 2.26.

With EADKNDKAVIDLVVLLFETALLSS, the protein stability index was 1.96.

Turning to EADKNDKAVMDLVVLLFETALLSS, the protein stability index came to 1.83.

As to EADKNDKAVSDLVVLLFETALLSS, the protein stability index worked out at 1.82.

Consider EADKNDKAVEDLVVLLFETALLSS, for which the protein stability index came to 2.18.

As for EADKNDKAVFDLVVLLFETALLSS, the protein stability index was 2.22.

In the case of EADKNDKAVGDLVVLLFETALLSS, the protein stability index was 1.86.

On to EADKNDKAVNDLVVLLFETALLSS, for which the protein stability index was determined as 2.01.

As for EADKNDKAVRDLVVLLFETALLSS, the protein stability index was 1.8.

Regarding EADKNDKAVVDLVVLLFETALLSS, the protein stability index was 2.48.

For the variant EADKNDKAVWDLVVLLFETALLSS, the protein stability index worked out at 1.83.

Regarding EADKNDKKVKDLVVLLFETALLSS, the protein stability index came to 1.94.

For the variant EADKNDKNVKDLVVLLFETALLSS, the protein stability index was 2.2.

For EADKNDKWVKDLVVLLFETALLSS, the protein stability index stood at 2.07.

For the variant EADKNDKPVKDLVVLLFETALLSS, the protein stability index was 2.01.

Turning to EADKNDKSVKDLVVLLFETALLSS, the protein stability index was 2.22.

Take EADKNDKEVKDLVVLLFETALLSS: the protein stability index amounted to 2.12.

EADKNDKHVKDLVVLLFETALLSS: the protein stability index came to 2.62.

Consider EADKNDKVVKDLVVLLFETALLSS, for which the protein stability index was found to be 1.63.

In the case of EADKNDKGVKDLVVLLFETALLSS, the protein stability index is 1.97.

Turning to EADKNDKTVKDLVVLLFETALLSS, the protein stability index amounted to 1.87.

On to EADKNDKDVKDLVVLLFETALLSS, for which the protein stability index is 2.44.

EADKNDKFVKDLVVLLFETALLSS: the protein stability index amounted to 2.18.

For the variant EADKNDKIVKDLVVLLFETALLSS, the protein stability index worked out at 1.55.

With EADKNDKRVKDLVVLLFETALLSS, the protein stability index came out at 2.19.

With EADKNDKCVKDLVVLLFETALLSS, the protein stability index came to 2.56.

Consider EADKNDKMVKDLVVLLFETALLSS, for which the protein stability index was determined as 2.62.

In the case of EADKNDKLVKDLVVLLFETALLSS, the protein stability index worked out at 2.43.

With EADKNRKAVKDLVVLLFETALLSS, the protein stability index came to 1.73.

As to EADKNYKAVKDLVVLLFETALLSS, the protein stability index amounted to 1.69.

EADKNTKAVKDLVVLLFETALLSS: the protein stability index worked out at 1.42.

Consider EADKNWKAVKDLVVLLFETALLSS, for which the protein stability index amounted to 1.69.

As for EADKNQKAVKDLVVLLFETALLSS, the protein stability index turned out to be 2.2.

As for EADKNVKAVKDLVVLLFETALLSS, the protein stability index was found to be 1.9.

Turning to EADKNDKAVKQLVVLLFETALLSS, the protein stability index was 1.97.

For EADKNDKAVKCLVVLLFETALLSS, the protein stability index was determined as 3.23.

As to EADKNDKAVKPLVVLLFETALLSS, the protein stability index amounted to 1.51.

EADKNDKAVKFLVVLLFETALLSS: the protein stability index was determined as 2.86.

Regarding EADKNDKAVKRLVVLLFETALLSS, the protein stability index came out at 3.27.

Regarding EADKNDKAVKALVVLLFETALLSS, the protein stability index was found to be 2.54.

For EADKNDKAVKELVVLLFETALLSS, the protein stability index worked out at 1.98.

Take EADKNDKAVKGLVVLLFETALLSS: the protein stability index was determined as 2.68.

For the variant EADKNDKAVKMLVVLLFETALLSS, the protein stability index was found to be 1.65.

On to EADKNDKAVKKLVVLLFETALLSS, for which the protein stability index was determined as 2.15.

As for EADKNDKAVKYLVVLLFETALLSS, the protein stability index is 2.79.

For EADKNDKAVKILVVLLFETALLSS, the protein stability index is 3.6.

As to EADKNDKAVKWLVVLLFETALLSS, the protein stability index is 3.06.

Take EADKNDKAVKNLVVLLFETALLSS: the protein stability index came to 2.67.

Turning to EADKNDKAVKVLVVLLFETALLSS, the protein stability index stood at 3.05.

On to EADKNDKAVKTLVVLLFETALLSS, for which the protein stability index was determined as 3.74.

Turning to EADKNDKAVKHLVVLLFETALLSS, the protein stability index came to 2.61.

EADKNDKAVKSLVVLLFETALLSS: the protein stability index amounted to 1.99.
